From US20220348651A1 (Novartis, published 2022)
Substitutions are numbered along the chain they refer to.

T1: cyno ENTPD2 expressed on NIH/3T3 cells (cynomolgus macaque, UniProt Q9Y5L3 1-495 (human entry))
T1 chain: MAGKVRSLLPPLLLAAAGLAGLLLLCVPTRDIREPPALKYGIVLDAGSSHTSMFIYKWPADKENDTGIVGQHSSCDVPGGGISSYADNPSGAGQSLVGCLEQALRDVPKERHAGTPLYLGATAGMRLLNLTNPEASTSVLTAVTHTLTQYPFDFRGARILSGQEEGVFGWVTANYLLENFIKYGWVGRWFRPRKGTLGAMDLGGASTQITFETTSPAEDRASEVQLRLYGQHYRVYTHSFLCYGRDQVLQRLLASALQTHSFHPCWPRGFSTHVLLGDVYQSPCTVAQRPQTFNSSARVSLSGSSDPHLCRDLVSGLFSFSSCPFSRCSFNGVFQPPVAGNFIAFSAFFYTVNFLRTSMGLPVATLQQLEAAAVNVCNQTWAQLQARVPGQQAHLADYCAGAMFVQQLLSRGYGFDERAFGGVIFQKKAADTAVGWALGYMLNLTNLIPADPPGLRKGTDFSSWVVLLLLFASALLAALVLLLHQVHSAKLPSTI

T2: human ENTPD2 expressed on cells (human, UniProt Q9Y5L3 1-495)
T2 sequence: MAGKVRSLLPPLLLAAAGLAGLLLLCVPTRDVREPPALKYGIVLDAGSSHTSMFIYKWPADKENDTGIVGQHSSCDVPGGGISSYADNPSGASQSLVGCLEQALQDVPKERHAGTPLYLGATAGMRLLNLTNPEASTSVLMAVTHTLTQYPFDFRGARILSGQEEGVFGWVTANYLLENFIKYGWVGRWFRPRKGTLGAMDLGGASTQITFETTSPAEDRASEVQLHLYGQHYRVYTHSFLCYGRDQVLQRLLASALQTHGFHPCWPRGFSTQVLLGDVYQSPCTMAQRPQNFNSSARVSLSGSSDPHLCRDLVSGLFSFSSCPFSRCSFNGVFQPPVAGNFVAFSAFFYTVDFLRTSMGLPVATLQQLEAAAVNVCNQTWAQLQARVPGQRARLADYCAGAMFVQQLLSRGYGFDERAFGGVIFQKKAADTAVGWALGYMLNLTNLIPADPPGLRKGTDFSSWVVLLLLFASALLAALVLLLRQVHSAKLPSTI

T3: recombinant cyno ENTPD2 extracellular domain (residues 29-462) with C-terminal Avi-His6 tag (cynomolgus macaque, UniProt Q9Y5L3 29-462 (human entry))
T3 construct: also called cynomologus (cyno) ENTPD2 ECD
T3 chain (part 1 of 2): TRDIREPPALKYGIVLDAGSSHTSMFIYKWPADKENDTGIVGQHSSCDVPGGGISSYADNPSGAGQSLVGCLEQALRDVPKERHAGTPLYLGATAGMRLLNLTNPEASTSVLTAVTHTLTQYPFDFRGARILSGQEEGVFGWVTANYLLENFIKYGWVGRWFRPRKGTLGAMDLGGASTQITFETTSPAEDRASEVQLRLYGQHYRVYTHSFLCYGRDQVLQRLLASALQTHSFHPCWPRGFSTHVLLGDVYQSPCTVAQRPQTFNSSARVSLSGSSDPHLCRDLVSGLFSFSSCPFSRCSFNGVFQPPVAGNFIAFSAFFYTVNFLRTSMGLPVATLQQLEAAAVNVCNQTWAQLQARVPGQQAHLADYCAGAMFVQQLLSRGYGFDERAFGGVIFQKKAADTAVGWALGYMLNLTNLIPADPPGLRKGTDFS
T3 chain (part 2 of 2): HHHHHH

T4: recombinant monomeric mouse ENTPD2 extracellular domain (residues 29-462) with His6 tag (mouse, UniProt O55026 29-462)
T4 sequence: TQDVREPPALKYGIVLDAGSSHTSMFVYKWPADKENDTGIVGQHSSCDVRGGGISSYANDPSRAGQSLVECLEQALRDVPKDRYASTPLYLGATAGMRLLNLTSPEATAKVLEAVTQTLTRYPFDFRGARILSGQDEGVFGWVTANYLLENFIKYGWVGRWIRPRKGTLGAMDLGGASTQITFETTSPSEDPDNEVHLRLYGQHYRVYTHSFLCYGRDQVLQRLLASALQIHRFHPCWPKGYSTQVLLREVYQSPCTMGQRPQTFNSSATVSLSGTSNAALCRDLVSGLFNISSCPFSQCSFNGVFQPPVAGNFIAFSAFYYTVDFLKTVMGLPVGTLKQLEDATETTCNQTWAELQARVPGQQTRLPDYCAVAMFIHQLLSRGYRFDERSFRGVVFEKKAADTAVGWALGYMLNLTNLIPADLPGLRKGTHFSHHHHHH

B1: ANTI-HUMAN ENTPD2 MAB2 (antibody, human IgG1, kappa)
heavy: not shown
light: EIVLTQSPATLSASPGERITLSCSASSSVSYIHWYQQKPGQAPRLLIYSTSNLASGIPARFSGSGSGTFYTLTISSVEPEDAAVYYCHQWSSYPWTFGGGTKLEIKRTVAAPSVFIFPPSDEQLKSGTASVVCLLNNFYPREAKVQWKVDNALQSGNSQESVTEQDSKDSTYSLSSTLTLSKADYEKHKVYACEVTHQGLSSPVTKSFNRGEC
notes: humanized from mAb17; human IgG1, kappa; also called Anti-ENTPD2 mAb2
B2: ANTI-HUMAN ENTPD2 MAB3 (antibody, human IgG1, kappa, V domains shown)
VH: QVQLVQSGAEVVKPGASVKISCKASGYTFTDYNMDWVKQAPGQRLEWIGDINPKYDISTYNQQFKGKATITVDTSASTAYMELSSLRSEDTAVYYCARRGFFLYYGINYYYFDVWGQGTLVTVSS
VL: EIVLTQSPATLSASPGERITLSCSASSSVSYIHWYQQKPGQAPRLLIYSTSNLASGIPARFSGSGSGTFYTLTISSVEPEDAAVYYCHQWSSYPWTFGGGTKLEIKR
notes: humanized from mAb17; human IgG1, kappa; also called Anti-ENTPD2 mAb3
B3: ANTI-HUMAN ENTPD2 MAB7 (antibody, human IgG1, kappa)
heavy: not shown
light: B1 light with R18E
notes: humanized from mAb17; human IgG1, kappa; also called Anti-ENTPD2 mAb7
B4: ANTI-HUMAN ENTPD2 MAB4 (antibody, human IgG1, kappa, V domains shown)
VH: QIQLQESGPGLVKPSQTLSLTCTVSGYSITSGYYWNWIRQHPGKGLEWIGYISYDADNNYNPSLKNRVTISRDTSKNQFSLKLSSVTAADTAVYYCAGGYYRYGLGSYRGSYYYVMDYWGQGTTVTVSS
VL: ETVLTQSPATLSVSPGERATISCKASQSVDYEGHSYMNWYQQKPGQAPRLLIYAASNLESGIPARFSGSGSGTDFTLTISSVEPEDAATYYCQQSNEDPPTFGGGTKLEIKR
notes: humanized and optimized from mAb16; human IgG1, kappa; also called Anti-ENTPD2 mAb4
B5: ANTI-HUMAN ENTPD2 MAB6 (antibody, human IgG1, kappa, V domains shown)
VH: B4 VH with I2V, I49M, V68I, R109S
VL: DTQMTQSPSSLSVSVGDRATITCKASQSVDYEGHSYMNWYQQKPGKAPKLLIYAASNLESGVPSRFSGSGSGTDFTLTISSVQPEDFATYYCQQSNEDPPTFGGGTKLEIKR
notes: humanized and optimized from mAb16; human IgG1, kappa; also called Anti-ENTPD2 mAb6
B6: ANTI-HUMAN ENTPD2 MAB5 (antibody, human IgG1, kappa, V domains shown)
VH: B4 VH
VL: B4 VL with E32D, H34N
notes: humanized and optimized from mAb16; human IgG1, kappa; also called Anti-ENTPD2 mAb5
B7: ANTI-HUMAN ENTPD2 MAB1 (antibody, human IgG1, kappa)
heavy: not shown
light: DIQLTQSPSSLSASVGDRVTITCSASSSVSYIHWFQQKPGKAPKLLIYSTSNLASGVPSRFSGSGSGTFFTLTISSLQPEDFATYFCHQWSSYPWTFGQGTKVEIKRTVAAPSVFIFPPSDEQLKSGTASVVCLLNNFYPREAKVQWKVDNALQSGNSQESVTEQDSKDSTYSLSSTLTLSKADYEKHKVYACEVTHQGLSSPVTKSFNRGEC
notes: humanized from mAb17; human IgG1, kappa; also called anti-ENTPD2 mAb1

Biological target: T1, cyno ENTPD2 expressed on NIH/3T3 cells
Assay: cell-based or functional assay

Row | Binder | % inhibition, Cyno ENTPD2 NIH/3T3 Assay | IC50, Cyno ENTPD2 NIH/3T3 Assay
1 | B1 | 84% | 2.7 nM
2 | B2 | 84% | 5.8 nM
3 | B3 | 82% | 2.7 nM
4 | B4 | 75% | 2.2 nM
5 | B5 | 73% | 3.3 nM
6 | B6 | 80% | 1.5 nM
7 | B7 | 91% | 4.1 nM

These binders were tested against T2, human ENTPD2 expressed on cells (assay: cell-based or functional assay).

Row | Binder | % inhibition, Human ENTPD2 NIH/3T3 Assay | % inhibition, RKO Assay | IC50, Human ENTPD2 NIH/3T3 Assay | IC50, RKO Assay
8 | B1 | 98% | 86% | 1.4 nM | 0.8 nM
9 | B2 | 91% | 95% | 1.8 nM | 1.6 nM
10 | B3 | 95% | 92% | 0.8 nM | 0.6 nM
11 | B4 | 87% | 74% | 0.2 nM | 0.2 nM
12 | B5 | 95% | 90% | 0.3 nM | 0.2 nM
13 | B6 | 95% | 80% | 0.3 nM | 0.2 nM
14 | B7 | 92% | 97% | 1.1 nM | 0.8 nM

Biological target: T3, recombinant cyno ENTPD2 extracellular …
Assay: SPR Biacore, mAb captured, ECD analyte, 25C
Protocol: (§1) Biacore Screening: Affinity was measured by determining the kinetic rate constants using surface plasmon resonance (SPR) on a Biacore T200 or T100 with the T200 sensitivity upgrade instrument (Biacore, GE Healthcare). Antibodies were captured on CM5 sensor chips (Biacore, GE Healthcare) prepared with a mouse anti-human IgG Fc antibody (ThermoFisher catalogue #05-4200) amine coupled to the surface. […] ENTPD2 analytes were allowed to associate for 180 s and dissociate for up to 1800 s depending on the off-rate of the antibody at a flow rate of 30 μL/min. The running buffer was PBS pH 7.2 (prepared from a Corning 10X stock, cat#46-013-CM)+0.05% Tween 20. […] The raw data were analyzed using Biacore T200 Evaluation Software version 1.0 and fit to a 1:1 binding model, with all parameters set to fit globally except for RI, which was set to fit locally.

Row | Binder | Kd | koff | kon
15 | B1 | 2.8 nM | 0.0012 s⁻¹ | 430000 M⁻¹ s⁻¹
16 | B2 | 2.2 nM | 0.00098 s⁻¹ | 450000 M⁻¹ s⁻¹
17 | B3 | 1.1 nM | 0.0012 s⁻¹ | 1.2e+06 M⁻¹ s⁻¹
18 | B4 | 42.1 nM | 0.0057 s⁻¹ | 140000 M⁻¹ s⁻¹
19 | B5 | 35.6 nM | 0.01 s⁻¹ | 290000 M⁻¹ s⁻¹
20 | B6 | 10.7 nM | 0.003 s⁻¹ | 290000 M⁻¹ s⁻¹
21 | B7 | 3.4 nM | 0.0012 s⁻¹ | 360000 M⁻¹ s⁻¹

The binders below were run against T5, recombinant human ENTPD2 extracellular domain (residues 29-462) with C-terminal Avi-His6 tag (human, UniProt Q9Y5L3 29-462, biotinylated on the AviTag in the epitope binning assay) (assay: SPR Biacore, mAb captured, ECD analyte, 25C).
T5 construct: also called human ENTPD2 ECD; Human ENTPD2-Avi-His6 protein
Protocol: as §1

Row | Binder | Kd | koff | kon
22 | B1 | 1.7 nM | 0.00018 s⁻¹ | 110000 M⁻¹ s⁻¹
23 | B2 | 1.3 nM | 0.00016 s⁻¹ | 130000 M⁻¹ s⁻¹
24 | B3 | 0.9 nM | 0.00019 s⁻¹ | 210000 M⁻¹ s⁻¹
25 | B4 | 0.7 nM | 0.00022 s⁻¹ | 300000 M⁻¹ s⁻¹
26 | B5 | 0.7 nM | 0.00026 s⁻¹ | 350000 M⁻¹ s⁻¹
27 | B6 | 0.6 nM | 0.00016 s⁻¹ | 270000 M⁻¹ s⁻¹
28 | B7 | 1.7 nM | 0.00019 s⁻¹ | 110000 M⁻¹ s⁻¹

Biological target: T1, cyno ENTPD2 expressed on NIH/3T3 cells
Assay: flow cytometry, NIH3T3 cyno ENTPD2 cells

Row | Binder | EC50
29 | B1 | 4.2 nM
30 | B2 | 5.4 nM
31 | B3 | 0.8 nM
32 | B4 | 6.1 nM
33 | B5 | 7 nM
34 | B6 | 5.2 nM
35 | B7 | 3.3 nM

The binders below were run against T4, recombinant monomeric mouse ENTPD2 … (assay: SPR Biacore).

Row | Binder | binding result
36 | B1 | no binding
37 | B2 | no binding
38 | B3 | no binding
39 | B4 | no binding
40 | B5 | no binding
41 | B6 | no binding
42 | B7 | no binding

Each binder was assayed against T2, human ENTPD2 expressed on cells (assay: flow cytometry, NIH3T3 human ENTPD2 cells).

Row | Binder | EC50
43 | B1 | 2.1 nM
44 | B2 | 2.8 nM
45 | B3 | 0.5 nM
46 | B4 | 0.9 nM
47 | B5 | 0.9 nM
48 | B6 | 0.9 nM
49 | B7 | 1.5 nM
